# According to the supplement of paper PMC12042874:
# ± gives the uncertainty stated by the source.
# Experiment: amyloid nucleation score (Sup35N fusion, yeast selection) (log enrichment); library NNK2; higher = more nucleation; inactive = no reads after selection
# How it was run: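 Sup35N was fused to peptides of 20 random codons and expressed in psi-negative yeast, which were induced with 100 μM copper sulfate for 24 hours and then grown on medium lacking adenine and uracil for 7 days at 30°C. Plasmid inserts from input and output were sequenced on Illumina. The nucleation score is the DiMSum log enrichment of output over input reads, centred on the mode score of non-aggregating sequences. Sequences with under 100 input reads were left out, and random libraries had three technical output replicates.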
row,Substance,amyloid nucleation score
1,RFKLEYHEEG,2.81 ± 0.19
2,SGFCQGGNSSRYMSII,1.9 ± 0.27
3,FYCSNSKFW,3.5 ± 0.074
4,ACDVNWLMNTIHQNNCCFAH,-0.716 ± 1.1
5,LLSDLFCIFVLRKSRSGGWS,1.04 ± 0.34
6,FASLCTW,-0.211 ± 0.46
7,LIVCRFDFPSNFSVDFFRVM,0.14 ± 0.74
8,SDSFKDPTWREDNRGW,2.54 ± 0.085
9,MHRLPNNIPTGNQLPLQPSE,-0.41 ± 0.48
10,GRVMMEC,0.465 ± 0.33
11,NIAWTVDRYRKGSARGV,1.17 ± 0.23
12,TFLSSC,0.096 ± 0.32
13,IVLLPWSCEM,1.26 ± 0.19
14,TVIGFRDRDSWSMEMIEDHC,-0.272 ± 0.43
15,IGKSEYVEFRLTSSP,0.354 ± 0.53
16,MSLVSRNSTSKHLNIVFSLI,5.057 ± 0.045
17,SSIRKDNRGCAHGGLVVER,0.698 ± 0.44
18,LDDPGLK,0.76 ± 0.14
19,CWLFNTY,3.04 ± 0.14
20,DTGRFVMLVVGR,0.304 ± 0.54
21,TLFRSELFAV,0.495 ± 0.56
22,VVLPFGMHAWYTKDNVEISS,0.181 ± 0.15

row,Substance,amyloid nucleation score
1,NPGVDQTHFLGFLI,-1.85 ± 1.1
2,ISTTFV,0.192 ± 0.79
3,RIWYY,inactive
4,RKVLWKSDTSSLLNEWSIAH,-0.178 ± 0.49
5,REDGSPVGLLGGDHWVDFAQ,1.38 ± 0.19
6,LFLLIIFLCTTYVVIKDPTH,2.73 ± 0.12
7,ITIQKIVEYISLNPEDT,5.878 ± 0.055
8,WFAKRW,inactive
9,PQGDSMTVCFQLVT,1.28 ± 0.61
10,WYSMISLSRTNIYRMFYVPV,-0.453 ± 0.53
11,SYYEWARGTSVVLIAFVTSF,-0.189 ± 0.48
12,CCNIGHNVMNY,2.9 ± 0.11
13,RVMMSRISYSLSCVSADKVR,0.288 ± 0.24
14,NCTHPFDMTPNFFWSYGIVG,-0.656 ± 1.1
15,NKMGVKVYTRIAQHSGHLFA,5.21 ± 0.094
16,TNRLMVEVALIFRSINCVNR,-0.561 ± 0.38
17,QVSDVRDLNFWISVTHVEVG,3.4 ± 0.12
18,NFLCVSDKGCDCVESKLG,8.145 ± 0.033
19,HLVMCMARVGTTVNLMSHQT,6.304 ± 0.057
20,ADNFICIIETYSYILVWRSS,-0.552 ± 0.78
21,IPCVMG,0.004 ± 0.65
22,IDKSG,2.44 ± 0.14

row,Substance,amyloid nucleation score
1,SFRQIATLYEKMFNDNGNGI,-0.528 ± 0.37
2,CDTLTRRFVRCNVWFQCKR,3.96 ± 0.056
3,KFCVRVYNYIVDRITSLMKT,3.22 ± 0.067
4,YFSGCSSFVS,-0.046 ± 0.49
5,CSKMLTSNRVC,-0.583 ± 1.1
6,AWVWFS,-0.845 ± 1.1
7,NRYTNGPNF,-0.106 ± 0.29
8,VVKDLRT,1.91 ± 0.48
9,RCLTELTNETNYVGAG,0.405 ± 0.3
10,LGYFFGSTFSRAVLFVRLRR,-0.097 ± 0.52
11,KFWYYIFCGLCMCYDFSKRR,6.42 ± 0.084
12,DFIITVL,-1.05 ± 0.78
13,SRLMVGGQSLVSW,5.716 ± 0.042
14,RTEGRGCRAAWSK,0.101 ± 0.76
15,VFSDWMNCRYLMLRVCRVPR,0.629 ± 0.56
16,RIMIEFWPRFSWSI,0.744 ± 0.14
17,SHLALTY,0.14 ± 0.25
18,SCFRC,9.804 ± 0.047
19,RVSHREFYLRGTLVETLLDD,inactive
20,LELVCRPISMALLEEWKGTR,0.393 ± 0.48
21,HKVFISLLCWEKMQKGLTQ,-0.295 ± 0.55
22,YWACDTFSILVLGNTVDSLD,inactive

row,Substance,amyloid nucleation score
1,TVLGTCPVNKVVDNSREAGS,1.36 ± 0.49
2,VFGSYCGSVPRAAKFAMT,inactive
3,LAGITWISSTVRDVSYMRRR,2.72 ± 0.1
4,TYTYSSCRIARRS,-0.559 ± 0.26
5,VQNMIDKVMKYWTYSICSTV,1.27 ± 0.36
6,LDVIDGYWTGRMTSSFSWMN,0.679 ± 0.47
7,DDLGMTFRLG,-0.337 ± 0.79
8,VSFRYCLYYYTENVVHMIVK,-1.85 ± 0.54
9,CTWTYE,5.92 ± 0.077
10,LLLNILLCIDPYIPWCLSLR,0.974 ± 0.57
11,TTFILNMMLYNSCTYVYMSL,8.549 ± 0.073
12,RAKTNSVGDLQYGIHVPMKG,-0.043 ± 0.37
13,FPNKITVIPSHTSRDNVNTL,0.261 ± 0.49
14,YLRFYRSIINILIKGSAFCV,-1.49 ± 1.1
15,PDVVNNGGSYHLHWGCWCW,3.25 ± 0.14
16,LGPALFICSDEGDMPL,-0.598 ± 0.63
17,IDSFDPGFRRHLDRSWIRRH,0.105 ± 1.1
18,CHMDFERFRWLKFSLFCSLH,-0.562 ± 1.1
19,GKFCIFASMADLMEW,-0.491 ± 0.42
20,WFDGDQDSNRQTVPIPQLPP,0.549 ± 0.45
21,VMLHPSNSLALNCLT,-0.297 ± 0.28
22,FAMNSVSFSAGNFTDSVPWW,-0.666 ± 0.63
